Measured values published in paper PMC6923934, “The peptide transporter 1a of the zebrafish Danio rerio, an emerging model in nutrigenomics and nutrition research: molecular characterization, functional properties, and expression analysis” (Genes & Nutrition, 2019).

B1: zebrafish PepT1a (Slc15a1a) (Danio rerio) (protein)
chain: MPDSKMDETKKKKKKTAECCGYPISIFFIVVNEFCERFSYYGMRAVLVLYFRYFLLWDDDLATSIYHAFVALCYLTPILGAIIADSWLGKFKTIIYLSIVYAVGQVVMAVSTIHDITDANRDGTPDNFTLHIALSMLGLVLIALGTGGIKPCVAAFGGDQFQEHQSRQLNTFFSVFYLCINAGSLLSTLITPVLRAQECGIHTQQQCYPLAFGVPAALMVVSLVVFIAGSGMYTKTAPEGNIMGSVCKCIWFALNNRFRHRSDIYPKREHWMDWAEEKYDKLLIAQIKMVLKVLFLYIPLPMFWTLFDQKGSRWTLQATTMTGDFGGFVLQPDQMQTVNPILILTLVPIMDRIIFPLIKKCGLNFSPLKRMTVGMLFAATAFIAAALVQMEIDKTLPNFPSSSESQLKVVNMHSESLIVTVPSQEPLLIGSFESSPDYITFDQQDIRLAFNTTPEINKDLSLIKGSRQTLIIPSEPAEMYLKEDIKSKPKEGKNAVRFVNGWTAYLNITNLESSLQPSETSNYTLVSQGMRKFTLTDGIQSCEFSRKFGFGSSYTFLIPSDLFSTDCESIKEIEDMQPNSVHMALQIPQYFLITTGEVMFSVTGLQFSYSQAPKNMKSVLQAGWLCTNAVGNIIVLIVAELGKLPKQWAEYVLFASLLVAVSIIFSIMAYFYTYIDPAEIEAEILKQQETDPDKKKKKETLEMEEKENEQEIKQTKI
notes: full-length cDNA cloned from zebrafish intestine, 717 residues, pSPORT1, cRNA in Xenopus laevis oocytes; untagged
B2: zebrafish PepT1b (Slc15a1b) (Danio rerio) (protein)
chain: MADKEGHKQKKERASCFGYPVSIFFIVVNEFCERFSYYGMKAVLVLYFKYFIGWDDDLSTTIYHTFVALCYLTPIMGAIIADSWLGKFKTIVYLSIVYTIGQVIMAISAIHDITDANRDGKPDNKTLHISLSMLGLILIALGTGGIKPCVAAFGGDQFEDHQEKQRSTFFSIFYLSINAGSLLSTLITPILRSQECGIYAKQSCYPLAFGVPAALMVVALIVFVIGHKMYIMESPKGNILLQVINCIGFALNNRFRHRGKQYPKREHWMDWAEEKYDKLLIAQVKMVVKVLFLYIPLPMFWALFDQQGSRWTIQATTMDGNFGGFVIQPDQMQIVNPILIVIMVPIMDSAIYPLIKLCRINFTPLRKMTVGMVLAALAFVAAALLQLQIDETMPKFPSTSQTQLKFLNVESTSLPVVVEGQDQFMVPGFNASSEYLTLDKENVTISAGGVNDTAFLKTGTRHTVLMNAAGMRNTLDDLTEKPEQGLNAIRFVNGWENRLNVSVKSDNVHADPLDASVYLLVPHGKVNFTIFDGGDGKCHYIMQLGFGSTYTVLIPSTFAFGQTCSESFEAVQDMEPNRIHMAWQVIQYFLLTCGEVVYSVTGLDFSYSQAPSNMKSVLQAGWLLTVAVGNIIVLIVAEAGSLPDQWAEYLLFASLLVAVSIIFAIMAYFYTYIDPNEIEAKFKELEPEDKKRKEMQMTAKDNMAYVHNENTNIKQTKI
notes: cRNA-expressed in Xenopus laevis oocytes; construct not described here (previously cloned zebrafish PepT1)

Columns and labels:
[1] = substrate: NCC(=O)N[C@@H](CCC(N)=O)C(=O)O; test: two-electrode voltage clamp, transport current in Xenopus oocytes; type: cell-based, Danio rerio; settings: pH 6.5, -60 mV, NaCl buffer, proton-coupled
From the text: two-electrode voltage clamp, transport current in Xenopus oocytes on zebrafish PepT1a (Slc15a1a)

[2] = substrate: NCC(=O)N[C@@H](CCC(N)=O)C(=O)O; test: as above; type: cell-based, Danio rerio; settings: pH 6.5, -60 mV, NaCl buffer, proton-coupled; remark: listed apart in the source
From the text: two-electrode voltage clamp, transport current in Xenopus oocytes on zebrafish PepT1b (Slc15a1b)

Protein	K0.5 [1] [mmol/L]	K0.5 [2] [mmol/L]
B1	0.24 ± 0.07	
B2		0.13 ± 0.02
